From the nanobody polyreactivity screen of Harvey et al. (2022)

Assay: yeast display, Sf9 membrane polyspecificity reagent, FACS + sequencing; frameworks hold sequencing errors
How it was run: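 Using colony PCR, genes from sorted yeast display clones were amplified, then sequenced on MiSeq at 2 × 250 and filtered by CDR length. The clones had been stained with 10% biotinylated, detergent-solubilized Sf9 membrane reagent for 1 hour at 4 °C and sorted by FACS into low and high (top ~1%) gates on anti-HA and streptavidin fluorescence. Polyreactivity labels come from the gate of origin.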

Row | Sequence | polyreactivity (PSR sort gate)
1 | QVQLVESGGGLVQAGGCLRLSCAASGSIFAPIAMGWYRQAPGKERDLVAAITSGVGSTDYADSVKGRFTISRDNAKNNVYLQMNSLKPEDTAVYYCAADSSYLTYWEYDYWGQGTQVTVSS | low polyreactivity
2 | QVQLVESGGGLVQAGGSLRLSCAASGFIFSAYSMGWYRPEPGKERELVAAISYSGGTTYYADSVKGRFTISRDNAKNTLYLQMNSLKPEDTAVYYCAAGVGYWGQGTQVTVSS | high polyreactivity
3 | QVHLVESGGGLVQAGGSLRLSCAASGRIFNQYGMGWSRQAPGKERELVAAIRSGDSTNYADSVKGRFTISRDNAKNTVYLQMNSLKPEDTAVYYCARDRPGDYAGYDYWGQGTQVTVSS | low polyreactivity
4 | QVQLVESGGGLVQAGGSLRLSCAASGSIFGGYDMGWYRQAPGTERELVAAITRDGDTNYADSVKGRFTISRDNAKNTVYLQMNSLKPEDTAVYYCAADRWLYSWFFNYDQGDYWGQGTQVTVSS | low polyreactivity
5 | QVQLEDSGGGLVQAGGSLRLSCAASGRTFPYKAMGWYRQAPGKERELVAAITSSGGSTYYADSVKGRFTISRDNAKNTVYLQMNSLKPEDTAVYYCAKGYYSPNYYYWGQGTQVTVSS | high polyreactivity
6 | QVQLVESGGGLVQAGGSLRLSCAASGSNLVHYAIGWYRQAPGKERELVAASSRGGSTNYADSVKGRFTISRDNAKNTVYLQMNSLKPEDTAVYYCAARRPWGEYYWGQGTQVTVSS | low polyreactivity
7 | QVQLVESGGGLVQAGGSLRLSCAASGSIFKWYAMGWYRQAPGKEREFVAAITNGGGSTYYADSVKGRFTISRDNAKNTVYLQMNSLKPEDTAVYYCAKDGHSYYPWEYDYWGQGTQVTVSS | low polyreactivity
8 | QVQLVESGGGLVQAGGSLRLSCAASGRILYQYAMGWYRQAPGKVRELVASISGRSGRTRYADSVKGRFTISRDIAKNTVSLQMNSLKPEDTAVYYCYAGTSVLKYDYWGQGTQVTVSS | low polyreactivity
9 | QFQLVESVGGLVQAGGSLRLSCAASGLNFSNYAMGWYRQAPGKERELVAVSSSRVSRTYYADSVKGRFTISRDNAKNTVYLQMISLKPEDTAVYYCAARDRTEFYYWGQGTQVTVSS | high polyreactivity
10 | QVQLLESGGGLVQAGGSLRLSCAPSGSTIAWYAMGWYIHAPGKERELVAAITQSGGSTYYADSVKGRFTISRDNEKNTVYLLMIRLKPEDTAVYYCAAYPGYAKYRYDFWGPGTQVTVSS | high polyreactivity
11 | QVQLVESGGGLVQAGGSLRLSCAASGIIFRRYAMGWYRQAPGKEREFVAAIRYTGGGTYYADSVKGRFTISRDNAKNTVYFQMNSLKPEDTAVYYCAASPWSRGSRWRPFDYWGQGTQVTVSS | high polyreactivity
12 | QVQLGESGGALVQAGGSLRLSCAASGFTFKYYAMGWYRQAPGKERELVAAISRGGSTYYADSVKGRFTISRDNAKNTVYLQMNILKPEDTAVYYCAARYVRVGYDYWGQGTQVTVSS | high polyreactivity
13 | QVQLVESGGGLVQAGGSLRLSCAASGRTFRQYAMGWYRQAPGQETELVAAITWDGGSTYYADSVKGRFTISRDNAKNPVYLQMNSLKPEDTAVYYCAKLLGGTYYEYDYWGQGTQVTVSS | low polyreactivity
14 | QVHLVESGRGLFQAGGSLRLSCAASGRIFPGYAMGWSRQAPGKESELVAGITWRTARTYYAYSVKGRFTISRDIAKNTVYLQMNSLKPEDTAVYYCAAKYARYGRDVIFDYWGQGTEVTVSS | high polyreactivity
15 | QVQLVESGGGLVQAGGSLRLSCAASGRILEGYAMGWYRQAPGKEELVAAITSDASTYYADSVKGRFTMSRDNAKNTVYLQINSLKPEDTAVYYCAADTYDNDYYYWGQGTLVTVSS | high polyreactivity
16 | QVQLVESGGGLVQAGGSLRLSCAASGFTFYIYAMGWYRQAPGKERELVAAITTSGDSTYYADSVKGRFTISRDNAKNTVYLQMNSLKPEDTAVYYCAAEYWYTYSWGQGTQVTVLS | low polyreactivity
17 | QVQLVESGGGLVEAGGSLRLSCAASGSTFRYYAMGWYRQAPGKERELFAAITWSGGSTNYADSVKGRFTISRDNAKNTFYLQMNSLKPEDTAVYYCNARYLYRHSRYARYDSWGQGTQVTVSS | high polyreactivity
18 | QVQLVESGGGLVQAGGSLRLSCAASGSIFRYYAMGWYRPAPGKERELVAAISSGGNTKYADSVKGRFTISRDNAKNTVYLQMNSLKPADTAVYYCNAAGKACGDYDYWGQGTQVTVSS | low polyreactivity
19 | QFQLVESGGGLVQAGGSLRLSCAASGSTFKYSAMGWYRQAPGKERELVAIIRSGGRTNYADSVKGRFTISRDNAKNTVYLQMNSLKPEDTAVYYCNARYGRYYGAYEYWGQGTQVTVSS | high polyreactivity
20 | QVQLVESGGGLVQAGGSLRLSCAASGSTIYTYALGWYRQAPGKERELVAAIRGRGGRTYYADSVKGRFTISRDNAKNTVYLQMNSLKPEDTAVYYCNADGYAYYRATTRFDYWGQGTQVTVSS | high polyreactivity
21 | QVQLVESGGGLVQAGGSLRLSCAASGRTFAYYAMGWYRQAPGKERELVAAISTSGTRTYYADSVKGRFTISRDNAKNTVYLQMNSLKPEDTAVYYCAARYRYQYEFDYWGQGTQVTVSS | high polyreactivity
22 | QVQLVESGGGLVQAGGSLRLSFAASGRIFGWYAIGGYRKAAGTEREVVAAISTSGVRTYYADSVKGRFTISRDNAKITVYLQMKSLKPEDTAVYYCAARYIRAYSRDYWGQGTQVTVSS | high polyreactivity

Row | Sequence | polyreactivity (PSR sort gate)
23 | QVQLVDSGGGLVQAGGSLRLSCAASGSSVKTYAMGWYRQAPGKERELVASISYSGDTTYADSVKGRFTISRDNAKNSVYLQMNSLKPEDTAVYYCAAGWYYYYYSYQYWDYDYWGQGTQVTVSS | high polyreactivity
24 | QVQLVESGGGLVQAGGSLRFSCAASGSTFTVYAMGWYRQAPGQERELVAAITNGGRTYYADSVKGRFTISRDNAKNTVYLQMNSLKPEDTAVYYCAADVYYDDYLYDYWGQGTQVTVSS | high polyreactivity
25 | QVQLVESRGGLVQAGGSLRLSCAASGRTFGIYTMGWYRQAPGKERKLVAAISKRGSSTYYADSVKGRFTISRDNANNTVYLQMNSLKPEDTAVYYCAATRRYRYNWGQGSQVTVSS | high polyreactivity
26 | QVQLVESGGGLVQAGGSLRLSCAASGSIFQKNAMGWYRQAPGKERELVATIRWSGGRTYYADSVKGRFTISRDNAKNTVYLQMNSLKPEDTAVYYCNAGYKGDYDYWGQGTQVTVSS | high polyreactivity
27 | QVQLVESGGGLVQAGGSLRLSCAASGLTFKTYAMGWYRQAPGKERELVAAISRSGGSTSYADSVKGRFTISRDNAKNTVYLQLNSLIPEDTEVYYCAAKTYEPRKYDYWGQGTQVTVSS | high polyreactivity
28 | QVQLVDSGGGLVQAGGSLRLRCAASGRTFTPYAMGWYRQAPGQERELVATISSGTSTNYADSVKGRFTISRDNAKNTVYLQMNSLKPEDTAVYDCAADGYTYKFDYWGQGTQVTVSS | low polyreactivity
29 | QVQLVESGGGLVQAGGSLRLSCAASGLIFGKNAMGWYRQAPGKERELVAAISSGDSTYADSVKGRFTISRDNAKNTVYLQMNSLKPEDTAVYYCNAEVLRESYDRHPTTDYYWGQGTQVTVSS | low polyreactivity
30 | QVQHVESGGGLVQAGGSLRLRCAASGRTFGQNTMGWSRQAPGKERELVAAISWSGDSTYYADSVKGRFTISRDNAKNTVYLQMNSLKTEDSAVYYCAADPYNYYVSGYDYWGQGTQVTVSS | low polyreactivity
31 | QVQLVESGGGLVQAGGSLRLSCAASGSTFGWYAMGWYRKAPGKERELVAAISTTGGRTYYADSVKGRFTISRDNAKNTVYLQMNSLKPEDTAVYYCNARGRRYVYSYGYDYWGQGTQVTVSS | high polyreactivity
32 | QVQLVESGGGLVQAGGSLRLSCAASGIFLGYALGWYRQAPGKERELVAAITSGDSTYYADSVKGRFTISRDNAKNTVYLQMNSLKPEDTAVYYCAKTRYSWPRVWYNYWGQGTQVTVSS | low polyreactivity
33 | QVQLVESGGGLVQAGGSLRLSCAASGSTLRRYAMGWYRQAPGKERELVAINSSGGITYYADSVKGRVTISRDNAKNTVYLQMNSLKPEDTAVYYCNARRPAPGYGYDYWGQGTQVTVSS | low polyreactivity
34 | QVQLVDSGGGLVQAGGSLRLSCAASGRTFSPYMGWYRQAPGKEREFVAAISKSGGRTYYADSVKGRFTISRDNAKNTVYVQMNSLKPEDTAVYYCAAGAWRGPYSGYYYWGQGTQVTVSS | low polyreactivity
35 | QVQLVESGGGLVQAGGSLRLSCAASGSIFYRYSMGWYRPAPGKESELVATITQSGVTTYYADSVKGRFTISRDNAKNTVYLELNSVKPEDTAVYYCAASYYYYLGPFFRKFDWGQGTQVTVSS | low polyreactivity
36 | QVQLGESGGGLVQAGGSLRLTCAASGITFGPYAMGWSRQAPGKERELVAAITWRGGSTYYADSVKGRFTISRDNAKNTVYLQMNSLKPEDTAVYYCNAKTEYGSPRGYGSWGQGTQVTVSS | low polyreactivity
37 | QVQLVESGGGLVQAGGSLRLSCAASGRILLGNVMGWYRQAPGKERELVAAISIGGNTNYADSVKGRFTISRDNANNTVYLQMNSLKPEDTAVYYCNARSLVFPITFWEYDYWGEGTQVTVSS | low polyreactivity
38 | QVQLVESGGGLVQAGGSLRLSCAASGSIYGPYAMGLYRQAPGKERELVAGITRSVGSTYYADSVKGRFTISRDYAKNTVYLQMNSLKPEDTAVYYCNAKWMYSRWAGYDYWGQGTQVTVSS | low polyreactivity
39 | QVQLVESGGGLVQAGGSLRISCAASGFIFIAYAMGWYRQAPGKERELVAAISKSGGNTYYADSVKGRFTISRDNAKNTVYLQMNSLKPEDTAVYYCATRPCYWRYEYWGQGTQVTVSA | high polyreactivity
40 | QVQLEETGGGLVHAGGILRLSCAASGIIYVVNAMGWYRQAPAKERELVAAISRNGGSTYYADSVKGRFTISRDNAKNTVYLQMNSLIPEDTAVYYCADRTVGRNAGFDYWGQVTQVTVSS | high polyreactivity
41 | QVQLVESGGGLVQAGGSLRLSCAASGSTFYSNAMGWYRQAPGKERELVAGIDTSDGSTNYADSVKGRFTISRDNAKNTVYLQMNSLKPEDTAVYYCAADYTQPGFVSYDYWGQGTQVTVSS | low polyreactivity
42 | QVQLVESGGRLVQAGGSLRLSCAASGSTINKYAMGWYRQAPGKERELVAAISRSGGSTNYADSVKGRFTISRDNAKNTVYLQMNSLKPEDNAVYYCNRTRYRSFHYDYWGQGTQVTVSS | high polyreactivity
43 | QVQLVESGGGLVQAGGSLRLSCAASGYTFDAYAMGWYRQAPGKERELVAAISGDSTNYADSVKGRFTISRDNAKNTVYLQMNSLKPEDTAVYYCAAAFWYDYWEKYDYWGQGTQVTVSS | low polyreactivity
